What was measured:
Experiment in all cases: Yeast surface display (YSD) FACS binding
CCL5_HUMAN = target: T1, CCL5_HUMAN (Homo sapiens, UniProt P13501)
T1 sequence (P13501 24-91): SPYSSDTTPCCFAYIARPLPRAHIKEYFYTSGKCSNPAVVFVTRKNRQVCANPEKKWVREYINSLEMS
Method in brief: (§1)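 Yeast clones displaying tick peptides were re-tested by FACS with labelled chemokine. Binding = % of peptide-expressing yeast above a background threshold set with streptavidin-Alexa647 alone; the mean percent shift was used where several clones were isolated. Confirmed binding ("YES") required >3-fold over background mean fluorescence intensity.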

CCL25_HUMAN = target: T2, CCL25_HUMAN (Homo sapiens, UniProt O15444)
T2 sequence (O15444 24-150): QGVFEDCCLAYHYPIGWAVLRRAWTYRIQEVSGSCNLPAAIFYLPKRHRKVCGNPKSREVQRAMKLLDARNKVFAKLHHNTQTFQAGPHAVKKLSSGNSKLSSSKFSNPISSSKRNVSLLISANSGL
Method in brief: as §1

CCL15_HUMAN = target: T3, CCL15_HUMAN (Homo sapiens, UniProt Q16663)
T3 sequence (Q16663 22-113): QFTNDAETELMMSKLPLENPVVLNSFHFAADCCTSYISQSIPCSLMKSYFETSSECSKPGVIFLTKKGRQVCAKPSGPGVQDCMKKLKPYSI
Method in brief: as §1

CCL19_HUMAN = target: T4, CCL19_HUMAN (Homo sapiens, UniProt Q99731)
T4 sequence (Q99731 22-98): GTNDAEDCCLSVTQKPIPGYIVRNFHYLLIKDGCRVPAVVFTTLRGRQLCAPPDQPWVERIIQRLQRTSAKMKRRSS
Method in brief: as §1

B1: P1006_AMBCA: tick CKBP, Amblyomma cajennense (protein)
chain: DTIGGIPGCGDPATTSAPEDQPKHYAVRTDKNGCKVMVIGTWMTKEDHNLLPPYISKERAPSGKVQLPASCKKNCHGKLKNLPNGTPCREVFGDLRRRRKHIKDGCKVGKCQNGLCVSEERIISCYLPPNITDPRPTHGPLAE
modifications: Amblyomma cajennense
- Binding to CCL5_HUMAN, YSD (CCL5_HUMAN): YES (An arbitrary threshold of >3 fold over background mean fluorescence intensity was chosen to describe confirmed re-tests. Where binding was detected data are indicated as “YES”)
- Binding to CCL25_HUMAN, YSD (CCL25_HUMAN): YES (An arbitrary threshold of >3 fold over background mean fluorescence intensity was chosen to describe confirmed re-tests. Where binding was detected data are indicated as “YES”)
- Binding to CCL15_HUMAN, YSD (CCL15_HUMAN): YES (An arbitrary threshold of >3 fold over background mean fluorescence intensity was chosen to describe confirmed re-tests. Where binding was detected data are indicated as “YES”)
- Binding to CCL19_HUMAN, YSD (CCL19_HUMAN): YES (An arbitrary threshold of >3 fold over background mean fluorescence intensity was chosen to describe confirmed re-tests. Where binding was detected data are indicated as “YES”)
